Assay in all cases: BLI
What all share (conditions): both partners purified

For assay [1], the target named is T1, SARS-CoV-2 Omicron XBB RBD, His-tagged (SARS-CoV-2 Omicron XBB, R346T | L368I | V445P | F486S | F490S).
T1 construct: not shown: 8xHis, C-terminal, kept

For assay [2], the target named is T2, SARS-CoV-2 Omicron XBB.1.16 RBD, His-tagged (SARS-CoV-2 Omicron XBB.1.16, R346T | L368I | V445P | T478R | F486P | F490S).
T2 construct: not shown: 8xHis, C-terminal, kept

Assay [3] addresses T3, SARS-CoV-2 Delta RBD, His-tagged (SARS-CoV-2 Delta (B.1.617.2), strain).
T3 construct: not shown: 8xHis, C-terminal, kept

For assay [4], the target named is T4, SARS-CoV-2 Omicron BF.7 RBD, His-tagged (SARS-CoV-2 Omicron BF.7, R346T).
T4 construct: not shown: 8xHis, C-terminal, kept

For assay [5], the target named is T5, SARS-CoV-2 Omicron XBB.1.16 spike RBD-His (SARS-CoV-2 Omicron XBB.1.16, R346T | L368I | V445P | F486P | F490S | T478R).
T5 construct: not shown: His8, C-terminal, kept

Assay [6] deals with T6, SARS-CoV-2 Omicron XBB spike RBD-His (SARS-CoV-2 Omicron XBB, strain).
T6 construct: not shown: His8, C-terminal, kept

Assay [7] addresses T7, SARS-CoV-2 Delta spike RBD-His (SARS-CoV-2 Delta (B.1.617.2), strain).
T7 construct: not shown: His8, C-terminal, kept

Assay [8] has as its target T8, SARS-CoV-2 Omicron BF.7 spike RBD-His (SARS-CoV-2 Omicron BF.7, strain).
T8 construct: not shown: His8, C-terminal, kept

The target in assay [9] is T9, SARS-CoV-2 Omicron BA.1 RBD, His-tagged (SARS-CoV-2 Omicron BA.1, strain).
T9 construct: not shown: 8xHis, C-terminal, kept

Assay [10] concerns the target T10, SARS-CoV-2 Omicron BA.5 RBD, His-tagged (SARS-CoV-2 Omicron BA.5, strain).
T10 construct: not shown: 8xHis, C-terminal, kept

Assay [11] deals with T11, SARS-CoV-2 Omicron BA.1 spike RBD-His (SARS-CoV-2 Omicron BA.1, strain).
T11 construct: not shown: His8, C-terminal, kept

For assay [12], the target named is T12, SARS-CoV-2 Omicron BA.5 spike RBD-His (SARS-CoV-2 Omicron BA.5, strain).
T12 construct: not shown: His8, C-terminal, kept

B1: neutralizing antibody 7F3 (antibody, V domains shown)
VH: EVQLVESGGGLVKPGRSLRLSCTASGFTFGDYAMSWFRQAPGKGLEWVGFIRSKAYGGTTEYAASVKGRFTISRDDSKSIAYLQMNSLKTEDTAVYYCTRDRYARYDILTGLSPAGADYFYYAMDVWGQGTTVTVSS
VL: EIVLTQSPATLSLSPGERATLSCRASQSVSSYLAWYQQKPGQAPRLLIYDASNRATGIPARFSGSGSGTDFTLTISSLEPEDFAVYYCQQRSNWPQYTFGQGTKLEIK
Usually Kd stands for the concentration at which binding is half-saturated. Broadly, the koff is a measure of how fast the partners let go of each other. High values mean fast dissociation, low ones slow dissociation. The kon is the rate constant with which the complex forms. A higher kon goes with faster complex formation. Take B1: the Kd in assay [1] stood at 19.9 nM; in [2], 28.6 nM; in [3], 20.8 nM; in assay [4], 1280 nM. The koff came to 0.00113 s⁻¹ in [1], 0.0048 s⁻¹ in [2], 0.000914 s⁻¹ in assay [3] and 0.0412 s⁻¹ in assay [4]. Moreover, the kon in assay [1] amounted to 56600 M⁻¹ s⁻¹; in assay [2], 168000 M⁻¹ s⁻¹; in assay [3] it was 44000 M⁻¹ s⁻¹; in assay [4] it was 32100 M⁻¹ s⁻¹.

B2: 7F3 neutralizing antibody (IgG) (antibody, V domains shown)
VH: EVQLVESGGGLVKPGRSLRLSCTASGFTFGDYAMSWFRQAPGKGLEWVGFIRSKAYGGTTEYAASVKGRFTISRDDSKSIAYLQMNSLKTEDTAVYYCTRDRYARYDILTGLSPAGADYFYYAMDVWGQGTTVTVSS
VL: EIVLTQSPATLSLSPGERATLSCRASQSVSSYLAWYQQKPGQAPRLLIYDASNRATGIPARFSGSGSGTDFTLTISSLEPEDFAVYYCQQRSNWPQYTFGQGTKLEIK
B2: the dissociation constant (Kd) in assay [5] was determined as 28.6 nM; in assay [6], 19.9 nM; in [7], 20.8 nM; in assay [8] it was 1280 nM. Also, the koff in assay [5] amounted to 0.0048 s⁻¹; in assay [6], 0.00112 s⁻¹; in assay [7], 0.000914 s⁻¹; in [8], 0.0412 s⁻¹. The kon is 168000 M⁻¹ s⁻¹ in assay [5], 56600 M⁻¹ s⁻¹ in assay [6], 44000 M⁻¹ s⁻¹ in assay [7] and 32100 M⁻¹ s⁻¹ in [8].

B3: LY-CoV1404 (also known as bebtelovimab) (antibody, V domains shown)
VH: QITLKESGPTLVKPTQTLTLTCTFSGFSLSISGVGVGWLRQPPGKALEWLALIYWDDDKRYSPSLKSRLTISKDTSKNQVVLKMTNIDPVDTATYYCAHHSISTIFDHWGQGTLVTVSS
VL: QSALTQPASVSGSPGQSITISCTATSSDVGDYNYVSWYQQHPGKAPKLMIFEVSDRPSGISNRFSGSKSGNTASLTISGLQAEDEADYYCSSYTTSSAVFGGGTKLTVL
notes: control antibody
Consider B3, for which the Kd in [9], in assay [3], in assay [4] and in assay [10] was below 0.001 nM each time. Besides, the koff in [9], in [3], in assay [4] and in assay [10] was below 1e-07 s⁻¹ in each case. The kon in assay [9] was 32200 M⁻¹ s⁻¹; in [3] it was 244000 M⁻¹ s⁻¹; in [4], 46800 M⁻¹ s⁻¹; in [10], 40500 M⁻¹ s⁻¹.

B4: LY-CoV1404 (bebtelovimab) (antibody, V domains shown)
VH: QITLKESGPTLVKPTQTLTLTCTFSGFSLSISGVGVGWLRQPPGKALEWLALIYWDDDKRYSPSLKSRLTISKDTSKNQVVLKMTNIDPVDTATYYCAHHSISTIFDHWGQGTLVTVSS
VL: QSALTQPASVSGSPGQSITISCTATSSDVGDYNYVSWYQQHPGKAPKLMIFEVSDRPSGISNRFSGSKSGNTASLTISGLQAEDEADYYCSSYTTSSAVFGGGTKLTVL
Regarding B4, the Kd in [11], in assay [7], in assay [12] and in assay [8] was below 0.001 nM each time. Further, the koff in [11], in assay [7], in assay [12] and in [8] was below 1e-07 s⁻¹ throughout. In addition, the kon came to 32200 M⁻¹ s⁻¹ in assay [11], 244000 M⁻¹ s⁻¹ in assay [7], 40400 M⁻¹ s⁻¹ in assay [12] and 46800 M⁻¹ s⁻¹ in assay [8].
